Laboratory results reported in paper PMC7861563, “FOXP1 Interacts with MyoD to Repress its Transcription and Myoblast Conversion” (Journal of cellular signaling, 2021).

T1: Myoblast Determination protein 1 (MYOD1/MyoD), endogenous in C2C12 (mouse (endogenous in C2C12), UniProt P10085 1-318)
T1 sequence (looked up): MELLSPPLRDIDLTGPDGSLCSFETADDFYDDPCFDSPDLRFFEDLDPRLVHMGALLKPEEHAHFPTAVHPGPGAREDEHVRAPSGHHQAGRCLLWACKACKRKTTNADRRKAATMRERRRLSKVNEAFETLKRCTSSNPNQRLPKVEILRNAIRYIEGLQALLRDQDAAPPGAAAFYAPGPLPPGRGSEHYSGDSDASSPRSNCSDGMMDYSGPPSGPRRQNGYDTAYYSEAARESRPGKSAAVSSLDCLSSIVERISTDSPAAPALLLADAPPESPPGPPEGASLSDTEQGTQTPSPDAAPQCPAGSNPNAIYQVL

B1: Forkhead Box P1 (FOXP1), endogenous in C2C12 (natural protein, mouse (endogenous in C2C12), UniProt P58462 1-705, looked up)
chain: MMQESGSETKSNGSAIQNGSSGGNHLLECGALRDTRSNGEAPAVDLGAADLAHVQQQQQQALQVARQLLLQQQQQQQQQQQQQQQQQQQQQQQQQQQQQQQQQQQQQVSGLKSPKRNDKQPALQVPVSVAMMTPQVITPQQMQQILQQQVLSPQQLQVLLQQQQALMLQQQLQEFYKKQQEQLQLQLLQQQHAGKQPKEQQVATQQLAFQQQLLQMQQLQQQHLLSLQRQGLLTIQPGQPALPLQPLAQGMIPTELQQLWKEVTSAHTAEETTSSNHSSLDLTSTCVSSSAPSKSSLIMNPHASTNGQLSVHTPKRESLSHEEHPHSHPLYGHGVCKWPGCEAVCDDFPAFLKHLNSEHALDDRSTAQCRVQMQVVQQLELQLAKDKERLQAMMTHLHVKSTEPKAAPQPLNLVSSVTLSKSASEASPQSLPHTPTTPTAPLTPVTQGPSVITTTSMHTVGPIRRRYSDKYNVPISSADIAQNQEFYKNAEVRPPFTYASLIRQAILESPEKQLTLNEIYNWFTRMFAYFRRNAATWKNAVRHNLSLHKCFVRVENVKGAVWTVDEVEFQKRRPQKISGNPSLIKNMQSSHAYCTPLNAALQASMAENSIPLYTTASMGNPTLGSLASAIREELNGAMEHTNSNESDSSPGRSPMQAVHPIHVKEEPLDPEEAEGPLSLVTTANHSPDFDHDRDYEDEPVNEDME

Assays:
[1] = biological target: MyoD, bacterially expressed (UniProt P10085)
[2] = biological target: T1, Myoblast Determination protein 1 …; assay: cell-based or functional assay

Molecule | EMSA titration: amount of GST-Fkh for full inhibition of DNA binding of MyoD homodimers (200ng/reaction) [1] | EMSA titration: amount of GST-Fkh for full inhibition of DNA binding of MyoD-E47N (MyoD 200ng, E47N 50ng/reaction) [1] | MCK enhancer E box firefly luciferase reporter in 10T1/2 cells after 5-azacytidine, FOXP1 expression plasmid in varying amounts (highest input ~3-fold molar excess over MyoD) [2] | luciferase reporter driven by 2 E-box consensus MyoD binding sites (2R-luc) in differentiating C2C12, normalized to β-galactosidase [2]
GST-FOXP Forkhead domain (GST-Fkh) (domain or fragment) | 100 ng | 400 ng |  | 
B1 |  |  | ~20 fold | ~12 fold
